Experimental data published in patent US20150218594A1, “CELL-FREE AND MINIMIZED METABOLIC REACTION CASCADES FOR THE PRODUCTION OF CHEMICALS” (CLARIANT PRODUKTE (DEUTSCHLAND) GMBH, priority 2012, published 2015).
Positions count from the first letter of the chain named. In names and notes the source's numbering stands. Like-named read-outs stand apart in the source and are kept apart here. Marks after values point to notes of the source that are not given here.

B1: F34M Y399C S405N: Aldehyde Dehydrogenase ALDH (EC 1.2.1.3), Thermoplasma acidophilum, Mutations F34M+Y399C+S405N, Seq ID 10; the engineered ALDH of Tables 1 and 2 (protein)
chain: MDTKLYIDGQWVNSSSGKTVDKYSPVTGQVIGRMEAATRDDVDRAIDAAEDAFWAWNDLGSVERSKIIYRAKELIEKNRAELENIIMEENGKPVKEAKEEVDGVIDQIQYYAEWARKLNGEVVEGTSSHRKIFQYKVPYGIVVALTPWNFPAGMVARKLAPALLTGNTVVLKPSSDTPGSAEWIVRKFVEAGVPKGVLNFITGRGSEIGDYIVEHKKVNLITMTGSTATGQRIMQKASANMAKLILELGGKAPFMVWKDADMDNALKTLLWAKYWNAGQSCIAAERLYVHEDIYDTFMSRFVELSRKLALGDPKNADMGPLINKGALQATSEIVEEAKESGAKILFGGSQPSLSGPYRNGYFFLPTIIGNADQKSKIFQEEIFAPVIGARKISSVEEMCDLANDNKYGLASYLFTKDPNIIFEASERIRFGELYVNMPGPEASQGYHTGFRMTGQAGEGSKYGISEYLKLKNIYVDYSGKPLHINTVRDDLFQSGRPVLGSSHHHHHH
modifications: Aldehyde Dehydrogenase (EC 1.2.1.3), Thermoplasma acidophilum, variant F34M-Y399C-S405N Protein sequence including C-terminal His-Tag
B2: wildtype (wt): Aldehyde Dehydrogenase ALDH (EC 1.2.1.3), Thermoplasma acidophilum, Seq ID 08, wildtype, non-optimized enzyme (protein)
chain: B1 chain with M34F, C399Y, N405S
modifications: Aldehyde Dehydrogenase (EC 1.2.1.3), Thermoplasma acidophilum, wildtype enzyme Protein sequence including C-terminal His-Tag
B3: KDGA: 2-Keto-3-deoxygluconate aldolase KDGA (EC 4.1.2.14), Sulfolobus acidocaldaricus, Seq ID 06 (protein, listed as Sulfolobus acidocaldarius)
chain: MEIISPIITPFDKQGKVNVDALKTHAKNLLEKGIDAIFVNGTTGLGPALSKDEKRQNLNALYDVTHKLIFQVGSLNLNDVMELVKFSNEMDILGVSSHSPYYFPRLPEKFLAKYYEEIARISSHSLYIYNYPAATGYDIPPSILKSLPVKGIKDTNQDLAHSLEYKLNLPGVKVYNGSNTLIYYSLLSLDGVVASFTNFIPEVIVKQRDLIKQGKLDDALRLQELINRLADILRKYGSISAIYVLVNEFQGYDVGYPRPPIFPLTDEEALSLKREIEPLKRKIQELVH

How the values were obtained:
[1] = Screening of TaALDH variants, relative activity under standard conditions (2 mM NAD); assay type: biochemical; details: for 2 mM NAD (mU/mL): 1 mM D-glyceraldehyde, 50° C., pH 7, lysate supernatant; for relative to wt: mU/mL values normalized to the wildtype control value
Experimental: (§1) Colonies of E. coli BL21 (DE3) containing Ta-ALDH library were transferred into 96-deepwell plates (Gainer BioOne) containing Zym5052 autoinduction medium (Protein Expression and Purification, 2005. 41(1): p. 207-234). Cultures were grown over night at 37° C., 1000 rpm. Cells were harvested by centrifugation at 5000 g at 2° C. for 2 min and lysed with B-Per® protein extraction reagent (Thermo Fisher Scentific, Rockford, USA). After incubation for 60 min at 50° C., insoluble cell debris and was removed by centrifugation at 5000 g at 20° C. for 30 min. Supernatants containing variants of TaALDH were tested for relative activity under standard conditions: 2 mM NAD, 1 mM D-glyceraldehyde in 50 mM HEPES (pH 7) at 50° C. After 20 min NADH formation was detected spectrophotometrically at 340 nm.
(§2) The values “relative to wt” are the mU/mL values normalized to the wildtype control value.

[2] = Enzyme half-life at 50° C.
[3] = Cofactor acceptance of Ta-ALDH variants (10 mM NAD); assay type: biochemical; details: for 10 mM NAD (mU/mL): 1 mM D-glyceraldehyde, 50° C., pH 7; for 10 mM NAD (mU/mL) / relative to wt: 10 mM NAD; for relative to wt: normalized to the wildtype control value; for 10 mM NAD /2 mM NAD: ratio of activity at 10 mM NAD to 2 mM NAD
Experimental: as §1
Change in cofactor acceptance of Ta-ALDH variants was tested under standard assay conditions but with 10 mM NAD. After 20 min NADH formation was detected and compared to relative activity.
as §2

[4] = Determination of specific activity of purified TaALDH variants; assay type: biochemical; details: purified enzyme, 1 mM D-Glyceraldehyde, 50° C., pH 7
Source text: The Ta-aldh gene was cloned in pCBR-Chis expression vector as described above. Mutations F34L, F34M, Y399C, S405C and S405N were inserted into Ta-aldh gene by Quickchange PCR as described above. For recombinant expression, E. coli BL21 (DE3) was transformed with pCBR-Ta-aldh-Chis, pCBR-Ta-aldh-f34I-s405c-Chis, pCBR-Ta-aldh-f34m-s405n-Chis or pCBR-Ta-aldh-f34m-y399c-s405n-Chis. Each of the four variants was produced using the following protocol:
Large amounts of a TaALDH-Variant were produced with fed-batch fermentation in a 40 L Biostat Cplus bioreactor (Sartorius Stedim, Goettingen, Germany). Defined media was supplemented with 30 μg/ml kanamycin. After inoculation cells were grown at 30° C. for 24 h and induced with 0.3 mM IPTG. Enzyme expression was performed at 30° C. for 3 h. One fermentation produced 300 g cells (wet weight). Cells were harvested and lysed with Basic-Z Cell Disruptor (Constant Systems, Northants, UK) in loading buffer (200 mM NaCl; 20 mM Imidazol; 2.5 mM MgCl2; 50 mM NaPi, pH 6.2). After heat treatment at 50° C. for 30 min, cell debris and protein aggregates were separated from soluble fraction by centrifugation at 30,000 g at 20° C. for 30 min (Sorvall RC6+, SS-34 rotor, Thermo Scientific).
Soluble fraction of His-tagged TaALDH-Variant was further purified by Ni-NTA chromatography using ÄKTA UPC-900 FPLC-system (GE Healthcare, Freiburg, Germany). Supernatant was loaded on HiTrap FF-column and washed with two column volumes of loading buffer. Highly purified and concentrated TaALDH was fractioned after elution in imidazole buffer (200 mM NaCl; 500 mM imidazol; 50 mM NaPi, pH 6.2). Buffer was changed to 20 mM (NH4)HCO3 with HiPrep 26/10 Desalting column and TaALDH was lyophilized with an Alpha 2-4 LD Plus freeze dryer (Martin Christ GmbH, Osterode am Harz, Germany).
TaALDH activity was determined spectrophotometrically at 50° C. by measuring the rate of cofactor reduction at 340 nm in flat bottom microtiter plates (Grainer BioOne) with a Fluorostar Omega Photometer (BMG Labtech GmbH, Ortenberg, Germany). One unit of activity was defined as reduction of 1 μmol of cofactor per minute.

[5] = Activity in solvents of Ta-ALDH variants (3 % isobutanol); assay type: biochemical; details: for 3 % isobutanol, 2 mM NAD (mU/mL): 50° C., pH 7; for 3 % isobutanol, 2 mM NAD (mU/mL) / relative to wt: 3 % isobutanol, 2 mM NAD; for relative to wt: normalized to the wildtype control value; for Stab. rel to wt: stability in 3 % isobutanol relative to wildtype
Experimental: as §1
Activity in solvents of Ta-ALDH variants was tested under standard assay conditions containing additional solvent. After 20 min NADH formation was detected and compared to relative activity.
as §2

[6] = ALDH activity assay (glyceraldehyde to glycerate, NAD reduction); assay type: biochemical; details: natural substrate
Experimental: (§3) (J. Mol. Catal. B-Enzym. 2009, 61, 30-35).
ALDH activity: ALDH activity was assayed at 50° C. by oxidizing D-glyceraldeyde to glycerate, whereby the coenzyme NAD is reduced to NADH. Assay mixture contained 50 mM HEPES (pH 7), 2.5 mM MgCl2, 2 mM NAD and 1 mM glyceraldehyde. (FEBS Lett. 2006, 580, 1198-1204)

[7] = cited from earlier work
[8] = Isobutanol tolerance of enzymes (I50); assay type: biochemical
[9] = Ethanol tolerance of enzymes (E50); assay type: biochemical; details: 60° C.
[10] = KDGA activity in cleavage direction (HPLC); assay type: biochemical; details: natural substrate
Experimental: as §3
KDGA activity: KDGA activity was followed in cleavage direction at 50° C. Reaction mixture contained 50 mM HEPES (pH 7), 0.1 mM thiamine pyrophosphate, 2.5 mM MgCl2, 20 U PDC and 10 mM KDG. KDG cleavage was followed by HPLC as described below.
Sample volume was 10 μl in each case.

[11] = Table 1, value with literature reference
[12] = Table 2, value with literature reference

Row | Molecule | 2 mM NAD (mU/mL) [1] [mU/mL] | relative to wt [1] | Half-life, 50° C. [2] [h] | 10 mM NAD (mU/mL) [3] [mU/mL] | relative to wt [3] | 10 mM NAD /2 mM NAD [3] | specific activity (U/mg) at 2 mM NAD [4] [U/mg] | 3 % isobutanol, 2 mM NAD (mU/mL) [5] [mU/mL] | relative to wt [5] | Stab. rel to wt [5] | Activity, 50° C. [6] [U/mg] | T-Optimum [7, 11] | T-Optimum [7, 12] | isobutanol concentration that already induces adverse effects on activity [8] | I50: Isobutanol concentration which causes loss of 50% activity ([8]; 50° C.) | E50: Ethanol concentration which causes loss of 50% activity [9] | Activity, 50° C. [10] [U/mg] | I50: Isobutanol concentration which causes loss of 50% activity ([8]; 60° C., above solubility) | activity in a two-phase isobutanol/water system ([8]; two-phase system forms at product titers above 12% (v/v))
1 | B1 | 130.81 | 45.3 | 12 | 396.91 | 33.3 | 0.7 | 1.2 | 74.77 | 46.9 | 1 | 1 | 63^[2] 50 °C | 63^[2] ° C. | 3 % (v/v) | 3 (50° C.) % v/v | 13 (60° C.) % v/v |  |  | 
2 | B2 | 2.89 | 1.0 |  | 11.92 | 1.0 | 1 | 0.2 | 1.60 | 1.0 | 1.0 |  |  |  |  |  |  |  |  | 
3 | B3 |  |  | >24 |  |  |  |  |  |  |  |  | 99^[1] 50 °C | 99^[1] ° C. |  |  | 15 (60° C.) % v/v | 4 | >12 (60° C.)^b % v/v | remains completely active
